From patent US20230302148A1, “PHARMACEUTICAL COMPOSITION COMPRISING LONG-ACTING CONJUGATE OF TRIPLE GLUCAGON/GLP-1/GIP RECEPTOR AGONIST” (HANMI PHARM. CO., LTD., priority 2020, published 2023)
Bridges are numbered along the chain shown (N, C = ends). Where no end group is shown, it is not given here. [ ]: non-standard residue; d: D form. The star is where a group is joined. Acetyl(2-(4-imidazolyl)) = O=C(Cc1c[nH]cn1)*; Aib = CC(C)(N)C(=O)O

Columns and labels:
Assay in all cases: cell-based or functional assay
human GIP receptor = target: T1, human GIP receptor (human, UniProt P48546 22-466)
T1 sequence (looked up): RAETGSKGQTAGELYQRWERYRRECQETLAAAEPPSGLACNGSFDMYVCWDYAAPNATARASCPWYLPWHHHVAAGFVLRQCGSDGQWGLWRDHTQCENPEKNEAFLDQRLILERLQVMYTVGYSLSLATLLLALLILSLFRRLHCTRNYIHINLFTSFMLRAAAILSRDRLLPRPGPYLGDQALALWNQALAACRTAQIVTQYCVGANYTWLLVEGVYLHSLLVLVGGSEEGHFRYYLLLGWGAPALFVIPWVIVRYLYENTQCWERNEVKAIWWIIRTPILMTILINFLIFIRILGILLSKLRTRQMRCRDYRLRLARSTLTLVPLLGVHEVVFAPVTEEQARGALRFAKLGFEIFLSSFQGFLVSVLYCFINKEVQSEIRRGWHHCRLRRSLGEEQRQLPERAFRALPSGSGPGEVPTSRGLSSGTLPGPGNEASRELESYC

human GLP-1 receptor = human GLP-1 receptor (human, UniProt P43220 24-463)
human GCG receptor = human GCG receptor (human, UniProt P47871 26-477)
human GCG receptor, sequence (P47871 26-477): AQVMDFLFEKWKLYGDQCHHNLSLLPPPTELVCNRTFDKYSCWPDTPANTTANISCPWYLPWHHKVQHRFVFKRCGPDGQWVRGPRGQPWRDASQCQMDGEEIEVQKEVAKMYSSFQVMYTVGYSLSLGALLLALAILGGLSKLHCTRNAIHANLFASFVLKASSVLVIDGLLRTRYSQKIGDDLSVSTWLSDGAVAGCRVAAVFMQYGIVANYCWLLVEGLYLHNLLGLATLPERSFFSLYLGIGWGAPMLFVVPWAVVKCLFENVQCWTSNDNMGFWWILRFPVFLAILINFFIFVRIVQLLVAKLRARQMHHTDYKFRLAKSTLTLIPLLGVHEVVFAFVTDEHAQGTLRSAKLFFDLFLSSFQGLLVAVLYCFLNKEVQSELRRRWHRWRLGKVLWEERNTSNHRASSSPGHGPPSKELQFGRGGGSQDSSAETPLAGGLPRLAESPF

Row | Binder | In vitro activity relative to native peptide (%) vs. GIP (human GIP receptor) | In vitro activity relative to native peptide (%) vs. GLP-1 (human GLP-1 receptor) | In vitro activity relative to native peptide (%) vs. Glucagon (human GCG receptor)
1 | [Acetyl(2-(4-imidazolyl))][Aib]QGTFTSDYSICMDEKHQKDFVNWLLNTK (bridge 16-20; not fully specified) [triple agonist of SEQ ID NO: 59] | 4% | 40.3% | < 0.1%
2 | H[Aib]QGTFTSDYSIAMDEIHQKDFVNWLLAQC (bridge 16-20) [triple agonist of SEQ ID NO: 55] | 2.4% | 27.1% | 0.7%
3 | H[Aib]QGTFTSDVSKYLDGQAAKEFVAWLLKGC [triple agonist of SEQ ID NO: 7] | < 0.1% | 13.7% | < 0.1%
4 | H[Aib]QGTFTSDYSKYLDEKRQKEFVQWLLNTKC (bridge 16-20) [triple agonist of SEQ ID NO: 58] | 0.2% | 39.1% | 2.6%
5 | H[Aib]QGTFTSDVSKYLDGQAAQEFVAWLLKGC [triple agonist of SEQ ID NO: 8] | < 0.1% | 14.2% | 0.1%
6 | Y[Aib]QGTFTSDYSKCLDERAAKEFVQWLLDHHPSSGQPPPS (bridge 16-20) [triple agonist of SEQ ID NO: 69] | 62.8% | 24.3% | 9.6%
7 | H[Aib]EGTFTSDYSIAMDEIHQKDFVDWLLAEC (bridge 16-20) [triple agonist of SEQ ID NO: 54] | 0.1% | 30.6% | 1.4%
8 | H[Aib]QGTFTSDYSKCLDEKRAKEFVQWLLDHHPSSGQPPPS (bridge 16-20) [triple agonist of SEQ ID NO: 65] | 11.6% | 95.4% | 25.2%
9 | [Acetyl(2-(4-imidazolyl))][Aib]QGTFTSDKSKYLDERAAQDFVQWLLDGGPSSGAPPPS [triple agonist of SEQ ID NO: 62] | < 0.1% | 5.2% | < 0.1%
10 | [Acetyl(2-(4-imidazolyl))][Aib]QGTFTSDYSIAMDEKHCKDFVNWLLNTK (bridge 16-20; not fully specified) [triple agonist of SEQ ID NO: 60] | 8.2% | 106% | < 0.1%
11 | H[Aib]QGTFTSDYSKYLDEKRQKEFVNWLLAQC (bridge 16-20) [triple agonist of SEQ ID NO: 56] | 0.8% | 57.9% | 4.9%
12 | Y[Aib]QGTFTSDYSKYLDECAAKEFVQWLLDHHPSSGQPPPS (bridge 16-20) [triple agonist of SEQ ID NO: 64] | 92.9% | 64.6% | 60.1%
13 | H[Aib]QGTFTSDYSIAMDEIHQKDFVNWLLNTC (bridge 16-20) [triple agonist of SEQ ID NO: 57] | 0.3% | 11.7% | < 0.1%
14 | Y[Aib]QGTFTSDCSKYLDERAAKDFVQWLLDHHPSSGQPPPS (bridge 16-20) [triple agonist of SEQ ID NO: 72] | 1.6% | 11.5% | 1%
15 | [Acetyl(2-(4-imidazolyl))][Aib]QGTFTSDYSIAMDEIACKDFVNWLLNTK (bridge 16-20; not fully specified) [triple agonist of SEQ ID NO: 61] | 2.8% | 59.8% | < 0.1%
16 | Y[Aib]QGTFTSDYSKCLDEKRAKDFVQWLLDHHPSSGQPPPS (bridge 16-20) [triple agonist of SEQ ID NO: 70] | 64.4% | 15.1% | 71.3%
17 | Y[Aib]QGTFTSDYSKYLDECAAKDFVQWLLDHHPSSGQPPPS (bridge 16-20) [triple agonist of SEQ ID NO: 67] | 39.8% | 28.5% | 46.2%
18 | [Acetyl(2-(4-imidazolyl))][Aib]QGTFTSDYSKYLDECRAKEFVQWLLDHHPSSGQPPPS (bridge 16-20; not fully specified) [triple agonist of SEQ ID NO: 73] | 3% | 22.6% | 5.4%
19 | Y[Aib]QGTFTSDYSKCLDEKAAKEFVQWLLDHHPSSGQPPPS (bridge 16-20) [triple agonist of SEQ ID NO: 68] | 107% | 27.9% | 8.8%
20 | Y[Aib]QGTFTSDYSKYLDECRAKDFVQWLLDHHPSSGQPPPS (bridge 16-20) [triple agonist of SEQ ID NO: 66] | 17.2% | 15.8% | 172%
21 | [Acetyl(2-(4-imidazolyl))][Aib]QGTFTSDCSKYLDERAAQDFVQWLLDGGPSSGAPPPS [triple agonist of SEQ ID NO: 63] | < 0.1% | 15.3% | < 0.1%
22 | Y[Aib]QGTFTSDYSKYLDERACKDFVQWLLDHHPSSGQPPPS (bridge 16-20) [triple agonist of SEQ ID NO: 71] | 94.7% | 90.1% | 12.7%
